B1: MYOZ1 (parent)
chain: FSDSSMDHFQKFLPTVGGQLGTAG
B2: POLD4 (parent)
chain: ITDSYPVVKRREGPAGHSKGELAP

Variants of: B1
Assay: protein stability index of a GFP-peptide fusion (GPS, HEK-293T) (PSI 1-6); higher = more stable
Settings: c terminus: a fixed tail appended
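Also: lentivirally expressed fusions sorted by FACS into six bins by GFP to DsRed ratio, PSI derived from sequencing read proportions per bin multiplied by bin number.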

Protein stability index: each site, then its substitutions
G24: S 1.98; V 2.42; T 1.89; Y 1.2; R 2.22; W 1.23

Variants of: B2
Assay: as above
Settings: c terminus: a fixed tail appended

Protein stability index, by site and new letter:
Y5: M 3.5; H 5.39; R 4.72; Q 5.68; N 4.98; P 5.13; T 3.5; C 3.78; W 3.08; S 4.91; K 5.3; I 4.84; E 5.69; L 4.59; V 4.23; D 5.56
S4: Q 3.81; H 2.67; R 3.87; E 4.58; P 4.58; D 5.06; Y 2.57; I 3.51; N 4.16; T 2.56
K9: F 3.1; D 4.63; W 4.14; R 3.25; I 3.8; Y 4.15; G 5.01; S 4.41; M 4.06; A 4.65; T 4.71; E 4.83; C 3.95; H 2.72; P 4.26; V 4.06
P14: R 2.46; K 2.97; E 4.1; I 3.1; L 3.24; V 1.93; W 2.84; H 3.84; N 3.55; A 3.82; Q 3.89; T 3.57; M 3.06; Y 2.81; C 3.14; S 2.43; F 3.28; D 2.94; G 2.98
R11: V 2.69; L 2.98; F 2.43; Q 4.37; G 3.79; E 5.14; I 3.76; P 3.28; S 3.23; K 3.54; A 3.23; C 3.68; M 2.87; W 3.46; D 4.79; T 3.33; Y 3.36; N 3.28; H 3.28
D3: S 2.68; W 1.99; M 3.2; K 3.89; F 3.39; I 1.09; L 2.46; Y 2.74; H 2.97; C 1.78; G 4.07; T 4.2; V 2; N 2.68
P6: R 2.94; E 4.33; T 4.55; L 3.75; D 5.12; W 3.4; S 3.53; A 3.48; I 4.17; G 4.67; N 4.51; H 5; F 3.52
S18: V 2.1; Q 3.65; E 3.26; I 3.44; H 3.35; W 2.8; R 3.14; P 2.84; D 4.01; C 3.17; Y 2.46; A 3.01; F 2.91; T 2.87; N 2.22; G 3.94; L 2.91; M 2.68; K 3.02
G20: D 3.55; S 2.58; Q 2.41; N 4.09; F 2.81; C 3.79; Y 2.92; W 2.83; T 2.67; V 3.07; I 2.99; M 3.49; L 3.11; P 4; E 2.93; A 3.06; K 2.62; H 2.22
E12: P 3.26; D 3.08; Q 4.16; N 2.85; I 3.53; T 3.41; S 2.69; C 2.1; Y 2.48; F 1.86; W 2.88; V 2.72; H 2.72; G 3.01; M 2.87; L 2.87; R 2.65

From the supplement of paper PMC10567573
